Test results taken from article PMC7062661, “Expression and purification of the 5′-nucleotidase YitU from Bacillus species: its enzymatic properties and possible applications in biotechnology” (Applied Microbiology and Biotechnology, 2020).

Columns and labels:
Experiment in all cases: purified protein
[1] = substrate: Nc1ncnc2c1ncn2[C@@H]1O[C@H](COP(=O)(O)O)[C@@H](O)[C@H]1O; settings: 50 mM imidazole pH 7.0, 5 mM MgCl2, 30 °C
[2] = substrate: Nc1nc2c(ncn2[C@@H]2O[C@H](COP(=O)(O)O)[C@@H](O)[C@H]2O)c(=O)[nH]1; settings: 50 mM imidazole pH 7.0, 5 mM MgCl2, 30 °C
[3] = substrate: Nc1ncnc2c1ncn2[C@H]1C[C@H](O)[C@@H](COP(=O)(O)O)O1; settings: 50 mM imidazole pH 7.0, 5 mM MgCl2, 30 °C
[4] = substrate: Nc1nc2c(ncn2[C@H]2C[C@H](O)[C@@H](COP(=O)(O)O)O2)c(=O)[nH]1; settings: 50 mM imidazole pH 7.0, 5 mM MgCl2, 30 °C
[5] = substrate: NC(=O)c1ncn([C@@H]2O[C@H](COP(=O)(O)O)[C@@H](O)[C@H]2O)c1N; settings: 50 mM imidazole pH 7.0, 5 mM MgCl2, 30 °C, Hill plot fit (sigmoidal kinetics)
[6] = substrate: Nc1ccn([C@@H]2O[C@H](COP(=O)(O)O)[C@@H](O)[C@H]2O)c(=O)n1; settings: 50 mM imidazole pH 7.0, 5 mM MgCl2, 30 °C
[7] = substrate: Cc1cc2nc3c(=O)[nH]c(=O)nc-3n(C[C@H](O)[C@H](O)[C@H](O)COP(=O)(O)O)c2cc1C; settings: 50 mM imidazole pH 7.0, 5 mM MgCl2, 30 °C
[8] = substrate: O=c1[nH]c(=O)c2ncn([C@@H]3O[C@H](COP(=O)(O)O)[C@@H](O)[C@H]3O)c2[nH]1; settings: 50 mM imidazole pH 7.0, 5 mM MgCl2, 30 °C

B1: Ht-YitUBs (Bacillus subtilis subsp. subtilis str. 168) (protein)
chain: METKPYLIALDLDGTLLKDDKTISENTLHTIQRLKDDGHYVCISTGRPYRSSSMYYQQMELTTPIVNFNGAFVHHPQDDSWGRYHTSLPLDVVKQLVDISESYNVHNVLAEVIDDVYFHYHDEHLIDAFNMNTTNVTVGDLRENLGEDVTSVLIHAKEEDVPAIRSYLSDVHAEVIDHRRWAAPWHVIEIIKSGMNKAVGLQKISDYYGVPRERIIAFGDEDNDLEMLEFAGCGVAMGNGIDAVKQIANRTTATNEEDGVARFLKEYFSL
Km [1]: 14.32 ± 1.01 mM
Vmax [1]: 52.9 µmol/min/mg
kcat [1]: 28.2 s⁻¹
kcat/Km [1]: 1970 M⁻¹ s⁻¹
Km [2]: 7.00 ± 0.29 mM
Vmax [2]: 40 µmol/min/mg
kcat [2]: 21.3 s⁻¹
kcat/Km [2]: 3040 M⁻¹ s⁻¹
Km [3]: 8.24 ± 0.42 mM
Vmax [3]: 49.4 µmol/min/mg
kcat [3]: 26.2 s⁻¹
kcat/Km [3]: 3190 M⁻¹ s⁻¹
Km [4]: 5.61 ± 0.79 mM
Vmax [4]: 25.9 µmol/min/mg
kcat [4]: 13.8 s⁻¹
kcat/Km [4]: 2460 M⁻¹ s⁻¹
K0.5 [5]: 10.19 ± 1.50 mM
Vmax [5]: 21.2 µmol/min/mg
kcat [5]: 11.3 s⁻¹
kcat/Km [5]: 1110 M⁻¹ s⁻¹
Km [6]: 17.45 ± 1.82 mM
Vmax [6]: 73.7 µmol/min/mg
kcat [6]: 39.2 s⁻¹
kcat/Km [6]: 2250 M⁻¹ s⁻¹
Km [7]: 0.096 ± 0.015 mM
Vmax [7]: 43.2 µmol/min/mg
kcat [7]: 23 s⁻¹
kcat/Km [7]: 239000 M⁻¹ s⁻¹
Km [8]: 21.74 ± 2.93 mM
Vmax [8]: 70.5 µmol/min/mg
kcat [8]: 37.5 s⁻¹
kcat/Km [8]: 1720 M⁻¹ s⁻¹
